Laboratory results from patent US20140274874A1 (Amgen, published 2014).

T1: MMP2 (human pro-MMP2 activated with APMA) (human, UniProt P08253 30-660)
T1 sequence (looked up): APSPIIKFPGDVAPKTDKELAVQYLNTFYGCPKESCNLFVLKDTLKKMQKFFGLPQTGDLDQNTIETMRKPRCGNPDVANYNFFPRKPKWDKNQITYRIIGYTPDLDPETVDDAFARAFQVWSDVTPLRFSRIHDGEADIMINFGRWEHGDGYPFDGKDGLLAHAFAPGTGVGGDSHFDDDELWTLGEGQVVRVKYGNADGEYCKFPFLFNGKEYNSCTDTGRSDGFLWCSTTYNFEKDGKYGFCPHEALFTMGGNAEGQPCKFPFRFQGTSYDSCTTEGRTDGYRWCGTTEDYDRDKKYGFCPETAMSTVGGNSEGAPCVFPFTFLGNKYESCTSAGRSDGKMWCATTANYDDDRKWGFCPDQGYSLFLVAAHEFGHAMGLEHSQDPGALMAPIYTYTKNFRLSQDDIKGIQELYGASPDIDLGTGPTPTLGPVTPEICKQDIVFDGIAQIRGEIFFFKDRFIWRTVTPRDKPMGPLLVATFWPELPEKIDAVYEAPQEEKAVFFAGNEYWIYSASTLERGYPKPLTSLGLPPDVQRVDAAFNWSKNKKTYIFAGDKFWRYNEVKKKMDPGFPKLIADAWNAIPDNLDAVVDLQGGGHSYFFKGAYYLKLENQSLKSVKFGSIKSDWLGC


How the values were obtained:
Assay in all cases: cell-based or functional assay
[1] = biological target: T1, MMP2 (human pro-MMP2 activated with …)
[2] = biological target: catalytic domain of human MMP9 (human, UniProt P14780 107-444, limits assumed)
catalytic domain of human MMP9, sequence (P14780 107-444 limits assumed): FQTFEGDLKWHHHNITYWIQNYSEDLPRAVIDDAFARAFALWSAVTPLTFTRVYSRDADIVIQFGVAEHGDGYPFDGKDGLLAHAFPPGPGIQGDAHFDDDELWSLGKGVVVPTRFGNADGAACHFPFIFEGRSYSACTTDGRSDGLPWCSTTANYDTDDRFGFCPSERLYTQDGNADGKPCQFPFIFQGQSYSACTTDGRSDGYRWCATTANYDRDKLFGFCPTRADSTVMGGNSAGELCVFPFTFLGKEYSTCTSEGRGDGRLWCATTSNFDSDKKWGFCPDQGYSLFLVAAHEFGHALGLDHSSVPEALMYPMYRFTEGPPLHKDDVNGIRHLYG

[3] = biological target: MMP13 (active MMP13, or pro-MMP-13 activated with APMA) (UniProt P45452 20-471, limits assumed)

Row | Binder | MMP2 IC50 [1] | MMP9 IC50 [2] | MMP13 IC50 [3]
1 | TIMP-3 mutein K45S, F57N (other) CTCSPSHPQDAFCNSDIVIRASVVGKKLVKEGPNGTLVYTIKQMKMYRGFTKMPHVQYIHTEASESLCGLKLEVNKYQYLLTGRVYDGKMYTGLCNFVERWDQLTLSQRKGLNYRYHLGCNCKIKSCYYLPCFVTSKNECLWTDMLSNFGYPGYQSKHYACIRQKGGYCSWYRGWAPPDKSIINATDP | 0.3 nM | 4 nM | 
2 | TIMP-3 mutein F57N (other) CTCSPSHPQDAFCNSDIVIRAKVVGKKLVKEGPNGTLVYTIKQMKMYRGFTKMPHVQYIHTEASESLCGLKLEVNKYQYLLTGRVYDGKMYTGLCNFVERWDQLTLSQRKGLNYRYHLGCNCKIKSCYYLPCFVTSKNECLWTDMLSNFGYPGYQSKHYACIRQKGGYCSWYRGWAPPDKSIINATDP | 0.5 nM | 4.6 nM | 0.5 nM

The remaining lines, values ahead:

Row | MMP2 IC50 [1] | MMP9 IC50 [2] | MMP13 IC50 [3] | Binder
3 | 0.6 nM | 1 nM | 0.9 nM | wild-type TIMP-3 (native human tissue inhibitor of metalloproteinase 3) (other) CTCSPSHPQDAFCNSDIVIRAKVVGKKLVKEGPFGTLVYTIKQMKMYRGFTKMPHVQYIHTEASESLCGLKLEVNKYQYLLTGRVYDGKMYTGLCNFVERWDQLTLSQRKGLNYRYHLGCNCKIKSCYYLPCFVTSKNECLWTDMLSNFGYPGYQSKHYACIRQKGGYCSWYRGWAPPDKSIINATDP
4 | 0.8 nM | 0.5 nM | 2.2 nM | TIMP-3 mutein T63N, K65T (other) CTCSPSHPQDAFCNSDIVIRAKVVGKKLVKEGPFGTLVYNITQMKMYRGFTKMPHVQYIHTEASESLCGLKLEVNKYQYLLTGRVYDGKMYTGLCNFVERWDQLTLSQRKGLNYRYHLGCNCKIKSCYYLPCFVTSKNECLWTDMLSNFGYPGYQSKHYACIRQKGGYCSWYRGWAPPDKSIINATDP
5 | 1 nM | 2.3 nM | 3.1 nM | TIMP-3 mutein P56N, G58T (other) CTCSPSHPQDAFCNSDIVIRAKVVGKKLVKEGNFTTLVYTIKQMKMYRGFTKMPHVQYIHTEASESLCGLKLEVNKYQYLLTGRVYDGKMYTGLCNFVERWDQLTLSQRKGLNYRYHLGCNCKIKSCYYLPCFVTSKNECLWTDMLSNFGYPGYQSKHYACIRQKGGYCSWYRGWAPPDKSIINATDP
